{"source": "paper doi:10.1101/2023.03.09.531992", "about": "(bioRxiv, 2023)", "key": {"[1]": {"molecular_target": "T1, S. cerevisiae β’WD40 domain (N-terminal WD40 domain of β’-COPI), wild type (S. cerevisiae, UniProt P41811 1-300)", "T1 sequence": "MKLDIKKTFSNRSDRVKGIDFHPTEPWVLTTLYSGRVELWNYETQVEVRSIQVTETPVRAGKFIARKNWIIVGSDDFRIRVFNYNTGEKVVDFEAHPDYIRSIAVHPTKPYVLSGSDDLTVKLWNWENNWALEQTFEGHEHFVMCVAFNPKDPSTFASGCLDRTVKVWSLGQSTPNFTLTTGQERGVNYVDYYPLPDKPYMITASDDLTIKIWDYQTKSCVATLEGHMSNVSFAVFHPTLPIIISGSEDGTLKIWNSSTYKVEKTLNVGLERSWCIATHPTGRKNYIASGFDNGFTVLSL", "assay": "NMR titration"}, "[2]": {"molecular_target": "T1, S. cerevisiae β’WD40 domain (N-terminal …)", "assay": "BLI"}, "[3]": {"molecular_target": "T2, S. pombe αWD40 Tyr139Ala mutant (S. pombe, UniProt Q96WV5 1-327, Tyr139Ala)", "T2 sequence": "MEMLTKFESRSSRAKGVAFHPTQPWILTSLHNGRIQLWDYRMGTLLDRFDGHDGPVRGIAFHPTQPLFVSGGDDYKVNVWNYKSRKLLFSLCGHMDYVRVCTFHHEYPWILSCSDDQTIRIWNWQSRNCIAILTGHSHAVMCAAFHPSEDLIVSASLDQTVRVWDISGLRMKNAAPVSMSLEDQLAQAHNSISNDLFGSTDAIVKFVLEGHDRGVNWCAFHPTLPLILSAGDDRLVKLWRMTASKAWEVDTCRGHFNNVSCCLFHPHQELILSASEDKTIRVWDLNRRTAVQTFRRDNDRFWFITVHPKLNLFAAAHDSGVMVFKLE", "assay": "BLI"}, "[4]": {"molecular_target": "T3, S. pombe αWD40 Arg300Ala mutant (S. pombe, UniProt Q96WV5 1-327, Arg300Ala)", "T3 sequence": "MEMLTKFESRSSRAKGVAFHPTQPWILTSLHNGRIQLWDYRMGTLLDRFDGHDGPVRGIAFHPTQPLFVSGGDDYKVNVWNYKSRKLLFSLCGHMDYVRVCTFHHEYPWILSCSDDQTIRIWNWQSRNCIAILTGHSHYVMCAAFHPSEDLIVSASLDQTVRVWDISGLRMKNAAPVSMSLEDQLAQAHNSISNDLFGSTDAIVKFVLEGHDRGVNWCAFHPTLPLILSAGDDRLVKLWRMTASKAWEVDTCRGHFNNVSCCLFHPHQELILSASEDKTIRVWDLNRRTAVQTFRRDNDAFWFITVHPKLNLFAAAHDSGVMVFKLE", "assay": "BLI"}, "[5]": {"molecular_target": "T4, S. pombe αWD40 domain (N-terminal WD40 domain of α-COPI), wild type (S. pombe, UniProt Q96WV5 1-327)", "T4 sequence": "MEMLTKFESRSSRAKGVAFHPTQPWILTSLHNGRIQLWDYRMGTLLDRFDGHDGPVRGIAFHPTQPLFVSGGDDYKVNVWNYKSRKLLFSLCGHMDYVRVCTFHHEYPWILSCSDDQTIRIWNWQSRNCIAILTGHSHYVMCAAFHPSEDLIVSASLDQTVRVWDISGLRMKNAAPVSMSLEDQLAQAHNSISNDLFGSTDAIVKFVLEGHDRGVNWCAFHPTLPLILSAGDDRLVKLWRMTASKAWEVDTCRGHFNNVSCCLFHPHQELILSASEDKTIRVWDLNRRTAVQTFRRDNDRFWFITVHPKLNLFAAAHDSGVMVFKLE", "assay": "BLI"}, "[6]": {"molecular_target": "T5, S. pombe αWD40 Arg13Ala mutant (S. pombe, UniProt Q96WV5 1-327, Arg13Ala)", "T5 sequence": "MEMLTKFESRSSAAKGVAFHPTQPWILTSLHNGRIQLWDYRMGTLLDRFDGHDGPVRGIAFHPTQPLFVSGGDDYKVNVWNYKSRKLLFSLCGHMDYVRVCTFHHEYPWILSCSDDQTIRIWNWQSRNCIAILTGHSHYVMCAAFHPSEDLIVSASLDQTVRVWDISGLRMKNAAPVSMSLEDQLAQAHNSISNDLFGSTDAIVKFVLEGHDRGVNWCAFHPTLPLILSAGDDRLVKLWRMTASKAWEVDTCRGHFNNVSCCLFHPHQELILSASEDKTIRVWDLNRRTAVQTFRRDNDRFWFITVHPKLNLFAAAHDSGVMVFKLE", "assay": "BLI"}}, "note": "No end group written: not given here.", "data": [{"binder": "CCKFDEDDSEPVLKGVKLHYE (cysteine pairing not given here; also: 15N isotope label)", "note": "[15N-labeled clientized (Thr1273Glu) SARS-CoV-2 S C-terminal tail peptide (NMR)]", "values": [{"measurement": "binding result", "setting": "[1]", "value": "binds"}]}, {"binder": "GVKLHYE (also: biotinylated)", "note": "[clientized (Thr1273Glu) SARS-CoV-2 S tail heptapeptide (residues 1267-1273), biotinylated]", "values": [{"measurement": "Kd", "setting": "[2]", "value": "2.3 ± 0.23", "unit": "µM"}, {"measurement": "Kd", "setting": "[3]", "value": "3.8 ± 0.36", "unit": "µM"}, {"measurement": "Kd", "setting": "[4]", "value": "4.2 ± 0.4", "unit": "µM"}]}, {"binder": "GVKLHYE-NH2 (also: biotinylated)", "values": [{"measurement": "binding result", "setting": "[5]", "value": "binds"}]}, {"binder": "GVKLHYT (also: biotinylated)", "note": "[wild-type SARS-CoV-2 S tail heptapeptide (residues 1267-1273), biotinylated]", "values": [{"measurement": "Kd", "setting": "[4]", "value": "3.6 ± 0.4", "unit": "µM"}, {"measurement": "binding result", "setting": "[6]", "value": "binds"}]}]}
